Measured values from publication PMC5414365, “Activin A more prominently regulates muscle mass in primates than does GDF8” (Nature Communications, 2017).

T1: Growth and differentiation factor 8 (GDF8) (human, UniProt O14793 267-375)
T1 sequence (looked up): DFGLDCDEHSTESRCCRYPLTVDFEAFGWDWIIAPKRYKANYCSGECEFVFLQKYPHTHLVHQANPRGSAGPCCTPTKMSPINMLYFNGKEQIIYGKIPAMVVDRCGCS

T2: activin AC (human, UniProt P08476 311-426; P55103 237-352)
T2 sequence (looked up) 1: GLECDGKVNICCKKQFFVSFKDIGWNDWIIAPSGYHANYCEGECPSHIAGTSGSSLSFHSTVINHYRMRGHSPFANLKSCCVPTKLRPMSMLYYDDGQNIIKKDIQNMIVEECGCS
T2 sequence (looked up) 2: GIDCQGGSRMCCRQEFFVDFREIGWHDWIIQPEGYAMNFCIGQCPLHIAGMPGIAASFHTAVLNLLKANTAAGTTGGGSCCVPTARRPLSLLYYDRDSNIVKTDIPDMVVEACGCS

T3: activin AB (human, UniProt P08476 311-426; P09529 293-407)
T3 sequence (looked up) 1: T2 sequence (looked up) 1
T3 sequence (looked up) 2: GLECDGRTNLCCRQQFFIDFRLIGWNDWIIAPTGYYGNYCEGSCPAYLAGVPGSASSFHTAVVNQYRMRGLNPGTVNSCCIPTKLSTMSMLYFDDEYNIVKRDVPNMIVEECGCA

B1: GDF11 (ligand, human, UniProt O95390 299-407, looked up)
chain: NLGLDCDEHSSESRCCRYPLTVDFEAFGWDWIIAPKRYKANYCSGQCEYMFMQKYPHTHLVQQANPRGSAGPCCTPTKMSPINMLYFNDKQQIIYGKIPGMVVDRCGCS
notes: human GDF11, mature growth factor domain; source: bought: R&D Systems
B2: ActRIIB.hFc (soluble form of activin receptor type IIB fused to human IgG Fc fragment) (Fc fusion, UniProt Q13705 19-137, looked up)
chain: SGRGEAETRECIYYNANWELERTNQSGLERCEGEQDKRLHCYASWRNSSGTIELVKKGCWLDDFNCYDRQECVATEENPQVYFCCCEGNFCNERFTHLPEAGGPEVTYEPPPTAPTLLT
notes: activin receptor type IIB (ACVR2B; ActRIIB), soluble form; also called hActRIIB.hFc; ACVR2B; source: made at Regeneron
B3: activin B (ligand, human, UniProt P09529 293-407, looked up)
chain: T3 sequence (looked up) 2
notes: human activin B: inhibin beta B chain, mature growth factor domain; source: bought: R&D Systems
B4: activin A (ligand, human, UniProt P08476 311-426, looked up)
chain: T2 sequence (looked up) 1
notes: human activin A: inhibin beta A chain, mature growth factor domain; also called Act A; source: bought: R&D Systems

Tests used:
[1] = target: B2; experiment: SPR; ligands at 40 to 0.78 nM injected over captured ActRIIB.hFc surface; Biacore T200, carboxymethyl dextran-coated CM4 sensor chip, 25 °C; details: both partners purified
GDF11 = target: B1; experiment: cell-based or functional assay
[2] = target: T1, Growth and differentiation factor 8 …; experiment: cell-based or functional assay
activin B = target: B3; experiment: cell-based or functional assay
activin AC [3] = target: T2, activin AC; experiment: cell-based or functional assay
activin A = target: B4; experiment: cell-based or functional assay
activin AB [4] = target: T3, activin AB; experiment: cell-based or functional assay
activin AC [5] = target: T2, activin AC; experiment: SPR; ligands at 40 to 0.78 nM injected over captured ActRIIB.hFc surface; Biacore T200, carboxymethyl dextran-coated CM4 sensor chip, 25 °C; details: both partners purified
activin AB [6] = target: T3, activin AB; experiment: as above; details: both partners purified

With B1 as the binder, how does the Kd [1] read?
The Kd was 14 pM.

For B2, which “IC50 of ActRIIB.hFc against GDF11-stimulated Smad2/3 activity (CAGAx12-luc reporter, A204 cells; fixed ligand concentration)” value (GDF11) is on record?
Its value is 210 pM.

What about the “IC50 of ActRIIB.hFc against GDF8-stimulated Smad2/3 activity (CAGAx12-luc reporter, A204 cells; fixed ligand concentration)” value [2] of the same binder?
Its value is 300 pM.

And the “IC50 of ActRIIB.hFc against activin B-stimulated Smad2/3 activity (CAGAx12-luc reporter, A204 cells; fixed ligand concentration)” value (activin B)?
The value was 550 pM.

What about the “IC50 of ActRIIB.hFc against activin AC-stimulated Smad2/3 activity (CAGAx12-luc reporter, A204 cells; fixed ligand concentration)” value (activin AC [3]) of the same binder?
The value was 85 pM.

What about the “IC50 of ActRIIB.hFc against activin A-stimulated Smad2/3 activity (CAGAx12-luc reporter, A204 cells; fixed ligand concentration)” value (activin A) of the same binder?
The value was 630 pM.

And the “IC50 of ActRIIB.hFc against activin AB-stimulated Smad2/3 activity (CAGAx12-luc reporter, A204 cells; fixed ligand concentration)” value (activin AB [4])?
The value was 390 pM.

What about the Kd (activin AC [5]) of the same binder?
The Kd was 5.9 nM.

What about the Kd (activin AB [6]) of the same binder?
Its Kd is 4.4 pM.

How did the Kd [1] turn out when B3 was run?
Its Kd is 6.4 pM.

How did the Kd [1] turn out when B4 was run?
Its Kd is under 3.5 pM.
